In the data set the test system is NC(=O)C1=CN([C@@H]2O[C@H](COP(=O)(O)OP(=O)(O)OC[C@H]3O[C@@H](n4cnc5c(N)ncnc54)[C@H](OP(=O)(O)O)[C@@H]3O)[C@@H](O)[C@H]2O)C=CC1. Nature of the data set: purified protein. The class given is biochemical, Scoparia dulcis. Particulars: 100 μM cytochrome c, varied NADPH; 28 °C, pH 7.5 in table footnote (methods: 25 °C, 50 mM Tris pH 7.4).

Chain of SdCPR (Scoparia dulcis) (chain, as listed by the source): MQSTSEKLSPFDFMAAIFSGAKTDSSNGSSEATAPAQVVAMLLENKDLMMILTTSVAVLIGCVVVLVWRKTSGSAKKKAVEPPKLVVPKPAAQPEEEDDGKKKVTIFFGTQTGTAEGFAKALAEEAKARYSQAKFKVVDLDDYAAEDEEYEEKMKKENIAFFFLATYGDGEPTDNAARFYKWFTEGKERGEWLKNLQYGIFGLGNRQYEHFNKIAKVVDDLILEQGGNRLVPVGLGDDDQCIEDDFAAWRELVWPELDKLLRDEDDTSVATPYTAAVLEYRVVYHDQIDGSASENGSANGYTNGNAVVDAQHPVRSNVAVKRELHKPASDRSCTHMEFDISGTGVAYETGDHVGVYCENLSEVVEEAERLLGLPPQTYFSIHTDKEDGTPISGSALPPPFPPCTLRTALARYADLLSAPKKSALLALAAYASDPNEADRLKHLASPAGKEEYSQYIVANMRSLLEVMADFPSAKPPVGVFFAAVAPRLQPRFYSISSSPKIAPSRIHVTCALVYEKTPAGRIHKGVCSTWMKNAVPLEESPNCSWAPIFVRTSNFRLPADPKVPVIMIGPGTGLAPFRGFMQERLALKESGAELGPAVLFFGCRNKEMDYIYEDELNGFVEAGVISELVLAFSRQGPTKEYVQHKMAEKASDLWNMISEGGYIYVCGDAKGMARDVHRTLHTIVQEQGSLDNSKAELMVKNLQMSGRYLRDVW

With SdCPR (Scoparia dulcis), the Km was 4.6 ± 0.9 µM, the Vmax was found to be 2.3 µmol/min/mg, the kcat was found to be 2.96 ± 0.13 s⁻¹ and the kcat/Km amounted to 665000 M⁻¹ s⁻¹.

Source of the values: article PMC7052086, “Functional characterization of NADPH-cytochrome P450 reductase and cinnamic acid 4-hydroxylase encoding genes from Scoparia dulcis L” (Botanical Studies, 2020).
